Publication PMC6208404, “Calcium sensing by the STIM1 ER-luminal domain” (Nature Communications, 2018)

Target: the molecule itself
Assay: FRET or BRET; in vitro; purified protein randomly labelled with fluorescein (donor) and Alexa Fluor 594 (acceptor) at an engineered N-terminal cysteine; 250 nM protein, 22 °C, excitation 420 nm; Chelex-treated Ca2+-free buffer, FRET reduced as Ca2+ was added

B1: single-cysteine EFSAM-GrpE (CGG-EFSAM(58-209)-linker-GrpE(1-171)), labelled with fluorescein and/or Alexa Fluor 594 (other, mouse | Thermus thermophilus HB8)
chain: CGGSEDEKLSFEAVRNIHKLMDDDANGDVDVEESDEFLREDLNYHDPTVKHSTFHGEDKLISVEDLWKAWKSSEVYNWTVDEVIQWLITYVELPQYEETFRKLQLTGHAMPRLAVTNTTMTGTVLKMTDRSHRQKLQLKALDTVLFGPPLLTRHNLELSRANSSTLAAVTSGSELMEERNHENTLEKDLEAVGQEAQALEERLKAAEEELKGLKDKYLRLLADFDNYRKRMEEELKAREREGVLKALRALLPVLDDLDRALEFAEASPESIRQGVRAIRDGFFRILAGLGVEEVPGEGEAFDPRYHEAVGLLPGEPGKVAKVFQRGFRMGEALVRPARVAVGEEKR
modifications: fluorescein-5-maleimide or Alexa Fluor 594 C5 maleimide on the engineered N-terminal cysteine (random labelling, ~0.8-0.9:1 fluorophore to protein)
notes: engineered stretch with the single cysteine, immediately N-terminal to EFSAM residue 58; STIM1 ER-luminal EFSAM domain, mouse, residues 58-209; linker between EFSAM and GrpE; GrpE, Thermus thermophilus HB8, residues 1-171 (nucleotides 2222-2734 of GenBank AB012390.1); also called double-labelled EFSAM-GrpE; donor/acceptor-labelled EFSAM-GrpE; source: E. coli BL21, purified (Ni-NTA, Superdex 200 …)
Question: Does B1 bind?
Answer: binds
